Measurements published in patent publication US20030078373A1.

Key:
barnase = barnase (UniProt P00648); test: cell-based or functional assay
[1] = target: IGPS (49-252) (indoleglycerol phosphate synthase lacking residues 1-48); test: refolding chromatography, urea-denatured IGPS (49-252) on the fragment column, peak 1
[2] = target: IGPS (49-252) (indoleglycerol phosphate synthase lacking residues 1-48); test: refolding chromatography, urea-denatured IGPS (49-252) on the fragment column, peak 2 (refolded protein)
cyclophilin A [3] = target: cyclophilin A (UniProt P62937); test: refolding chromatography, initially denatured cyclophilin, inactive peak
cyclophilin A [4] = target: cyclophilin A (UniProt P62937); test: refolding chromatography, initially denatured cyclophilin, active peak

Chain of barnase (P00648 48-157 limits assumed): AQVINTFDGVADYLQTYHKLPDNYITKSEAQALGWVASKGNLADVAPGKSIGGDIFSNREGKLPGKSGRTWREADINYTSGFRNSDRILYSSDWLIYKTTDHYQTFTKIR

GroEL 191-345
C, factor by which EX2 mechanism exchange is catalysed by GroEL fragment (globally exchanging amide protons of barnase) (barnase): 10 fold
C, factor by which EX2 mechanism exchange is catalysed by GroEL fragment (locally exchanging amide protons of barnase) (barnase): 5 fold
C, factor by which EX2 mechanism exchange is catalysed by GroEL fragment (mixed amide protons of barnase) (barnase): 1 fold

ht-GroEL 191-345 immobilised on Ni-NTA agarose
Kav [1]: 1
Kav [2]: 1.7
Kav (cyclophilin A [3]): 0.38
Kav (cyclophilin A [4]): 1.43
